Where “and” joins values, the source holds several entries; their conditions need not be identical. Identical values can stand only once.
B1: P17 redesign Des-3 peptide (163-LSDGTGLNAL-172) (peptide)
peptide: LSDGTGLNAL
B2: P17 redesign Des-1 peptide (163-WSNGLGLDAL-172) (peptide)
peptide: WSNGLGLDAL
B3: native dystrophin exon-6 P17 HLA-DQ7 epitope peptide (163-WSDGLALNAL-172) (peptide)
peptide: WSDGLALNAL
B4: P17 redesign Des-2 peptide (163-WSDGTGLNAL-172) (peptide)
peptide: WSDGTGLNAL

Each binder was assayed against HLA-DQ7 (MHC class II) on autologous antigen presenting cells (BLCL) of patient 5 (human) (assay: cell-based or functional assay).

| Binder | interferon gamma ELISpot with expanded patient 5 T cells |
| --- | --- |
| B1 | ~25 spot forming units/10,000 cells |
| B2 | ~25 spot forming units/10,000 cells |
| B3 | ~75 spot forming units/10,000 cells and ~3 fold above background |
| B4 | ~25 spot forming units/10,000 cells |
